The target in test [1] is wild-type human TLR3 ECD-CD32 construct (V5-TLR3-CD32) on HEK293T cells (human). Briefly: flow cytometry, 293T cells expressing TLR3/CD32 solely at the surface, neutral pH. In general terms: A flow cytometer gives signals particle by particle.
Experimental: Following two wash cycles, cell MFI was analyzed on a FACS Canto II cytometer.
In test [2] the target is T1, recombinant human His-tagged TLR3 extracellular domain protein (human, UniProt O15455 24-704).
T1 construct: Bought protein; also called TLR3-His; recombinant human TLR3; not shown: His tag
Briefly: SPR (Biacore T100), bivalent affinity, TLR3-His immobilized, pH 5.6; pH 5.6.

In test [3] the target is T1, recombinant human His-tagged TLR3 …. Kind of test: SPR (Biacore T100), bivalent affinity, TLR3-His immobilized, pH 7.2; pH 7.2. On the technique in general: SPR reads the build-up and loss of mass on a sensor chip optically.
Experimental: For bivalent affinity measurement, unless indicated otherwise, TLR3-His protein was immobilized on a Sensor Chip CM5 (carboxymethylated dextran layer) by amine coupling. […] The resulting sensorgrams were analysed by global fitting using the appropriate model.
Binding to TLR3 at neutral (pH 7.2) and acid (pH 5.6) conditions, and KD values were calculated.

B1: antibody 7G11 (antibody, V domains shown)
VH: EVQLQQYGAELGKPGTSVKLSCKVSGYNITYTYMHWVNQRPGKGLEWIGRIDPANGNTIYGEKFKNKATLTADTSSNTAYMQLSQLKSDDTAIYFCAMGEFDYFDHWGQGVMVTVSS
VL: DIQMTQSPASLSASLGETVSIECLASEDISNDLAWYQQKSGKSPQVLIYAASRLEDGVPSRFSGSGSGTRYSLKISGMQPEDEADYFCQQSYKYPVTFGSGTKLEIK
notes: Rat monoclonal from LOU/c immunization #2; also called clone 7G11
In the case of B1, the concentration giving a half-maximal response (EC50) – broadly, the midpoint of the concentration-response curve – in test [1] turned out to be 0.021 µg/mL.

B2: antibody 31F6 (antibody, V domains shown)
VH: EVQLQQSGAELGKPGTSVKLSCKVSGYNIRYTYMHWVNQRPGKGLEWIGRIDPANGDSIYGEDFKTKATLTADTSSNTAYMQLSQLKSDDTAIYFCAMGEFDYFDYWGQGVMVTVSSASTK
VL: DIQMTQSPPSLSASLGETVSIECLASEGISNDLAWYQQRSGKSPQLLIYAASRLQDGVPSRFSGSGSGTRYSLKISGMQPEDEADYFCQQNYKYPLTFGSGTKLEIK
notes: Rat monoclonal from LOU/c immunization #2; also called clone 31F6
With B2, the concentration for a half-maximal effect (EC50) in test [1] came out at 0.026 µg/mL.

B3: antibody 11E1 (antibody, V domains shown)
VH: QVQLQQPGAELVRPGASVKLSCKASGYTFTNYWMNWVKQRPGQGLEWIGMIDPSDSETHYNQMFKDKATLTVDKSSSTAYMQLSSLTSEDSAVYYCARGGASSDYYYFDYWGQGTTLTVSSASTK
VL: ETTVTQSPASLSMAIGEKVTIRCITSTDIHDDINWYQQKPGEPPKLLISEGNTLRPGVPSRFSSSGYGTDFVFTIENMLSEDVADYYCLQSDNLPRTFGGGTKLEIKRT
notes: Mouse monoclonal from Balb/c immunization #1; also called clone 11E1
Take B3: the Kd was determined as 1 nM in test [2] and 0.0875 nM in test [3]. The molecule also had a concentration for a half-maximal effect (EC50) in test [1] of 0.016 µg/mL.

B4: antibody 32C4 (antibody, V domains shown)
VH: EVQLQQYGAELGKPGTSVKLSCKVSGYNIWSTYIYWVNQRPGKGLEWIGRIDPANGNTIYAEKFKTKATLTADTSSNTAYMQLSQLKSDDTAIYFCAMGDHGGYVMDAWGQGASVTVSS
VL: DIQMTQSPGSLSASLGETVSIECLASEDIYSYLAWYQQKPGKSPQLLIYAANRLEDGVPSRFSGSGSGTQYSLKISGMQPEDEGDYFCLQGSEFPYTFGTGTKLELK
notes: Rat monoclonal from LOU/c immunization #2; also called clone 32C4
Molecule B4 returned an EC50 in test [1] of 0.037 µg/mL.

Source of the values: US20150140000A1 (INNATE PHARMA, published 2015).
